This note sets out measurements from patent publication US20240000938A1.

The target in assay [1] is streptavidin-PE-HLA-A*02-pMHC or streptavidin-APC-HLA-A*02-pMHC tetramer (human). Description: flow cytometry; HLA-A*02 positive donor primary T cells with CAR and A*02 blocker, after B2M knockout with sgRNA B2M-3.
Assay [2] addresses HLA-A*02 on cells (human). Description: cell-based or functional assay.
The target in assay [3] is streptavidin-PE-HLA-A*02-pMHC or streptavidin-APC-HLA-A*02-pMHC tetramer (human). Kind of assay: flow cytometry; HLA-A*02 positive donor primary T cells with CAR and A*02 blocker, before B2M knockout. On the technique in general: A flow cytometer gives signals particle by particle.
For assay [4] the target is unchanged. Description: flow cytometry; HLA-A*02 positive donor primary T cells with CAR and A*02 blocker, after B2M knockout with sgRNA B2M-6.

“HLA-A*02 PA2.1 ScFv LIR1 inhibitor (C1765) (from UniProt Q8NHL6 398-650)”: the % of the cell population stained with the A*02 blocker probe in assay [1] was determined as 40.7%. Further, in assay [2], the inhibition of IFNγ induction in primary T cells (HeLa cells) was > 5 fold, the inhibition of IFNγ induction in primary T cells (SiHa cells) was > 10 fold and the suppression of pan HLA scFv CAR signal (T2 cells) was < 25 fold. Further, in assay [3], the % of cells negative for the A*02 blocker probe was > 85% and the % of the cell population stained with the A*02 blocker probe stood at 14.8%. The same substance displayed a % of the cell population stained with the A*02 blocker probe in assay [4] of 44%.
